Results reported in article PMC9967645, “OAT3 Participates in Drug–Drug Interaction between Bentysrepinine and Entecavir through Interactions with M8—A Metabolite of Bentysrepinine—In Rats and Humans In Vitro” (Molecules, 2023).

Substrate: CN(C)CCOc1ccc(CC(NC(=O)c2ccccc2)C(=O)O)cc1
Experiment: cells, lysate or membranes named
Conditions: other: hOAT3-HEK293 cells, Eadie–Hofstee plot, 2 to 1000 µM, 5 min; pH 7.4
Method: The hOAT1-HEK293, hOAT3-HEK293 and mock cells were cultured in Dulbecco modified Eagle medium (DMEM) containing 10% fetal bovine serum (FBS) and 1% penicillin/streptomycin in an atmosphere of 5% CO2 air at 37 °C. The HEK293 cells were plated on 24-well plates at a density of 5 × 10^5 cells/well. […] Uptake assay was initiated by adding 1 mL of the transporter buffer containing Y101, M8, ETV or probe substrate. Following incubation with gentle shaking, the uptake was terminated at designated time by removing the transporter buffer and washing cells three times with 1 mL of ice-cold HBSS. Next, substrates of Y101, M8, ETV, PAH and ES in cell monolayer were released by lysing the cells with 0.3 mL of 0.1% Triton X-100 for 2 h and determined by liquid chromatography–tandem mass spectrometry (LC–MS/MS). In the time-course uptake assay, Y101 (2.0 µM) and M8 (10 µM) in the presence or absence of PRO (100 µM) were measured in hOAT1-HEK293, hOAT3-HEK293 and mock cells. The concentration-dependent uptake of M8 was determined in hOAT3-HEK293 cells, and incubation time (5 min) was optimized. […] The uptake of ETV (10 µM) with or without Y101 or M8 was also measured in hOAT1-HEK293 and hOAT3-HEK293 cells, respectively. […] Protein concentrations were measured by the bicinchoninic acid procedure (Solarbio, Beijing, China) using bovine serum albumin as the standard. […]

B1: hOAT3 (Homo sapiens) (protein)
chain: MTFSEILDRVGSMGHFQFLHVAILGLPILNMANHNLLQIFTAATPVHHCRPPHNASTGPWVLPMGPNGKPERCLRFVHPPNASLPNDTQRAMEPCLDGWVYNSTKDSIVTEWDLVCNSNKLKEMAQSIFMAGILIGGLVLGDLSDRFGRRPILTCSYLLLAASGSGAAFSPTFPIYMVFRFLCGFGISGITLSTVILNVEWVPTRMRAIMSTALGYCYTFGQFILPGLAYAIPQWRWLQLTVSIPFFVFFLSSWWTPESIRWLVLSGKSSKALKILRRVAVFNGKKEEGERLSLEELKLNLQKEISLAKAKYTASDLFRIPMLRRMTFCLSLAWFATGFAYYSLAMGVEEFGVNLYILQIIFGGVDVPAKFITILSLSYLGRHTTQAAALLLAGGAILALTFVPLDLQTVRTVLAVFGKGCLSSSFSCLFLYTSELYPTVIRQTGMGVSNLWTRVGSMVSPLVKITGEVQPFIPNIIYGITALLGGSAALFLPETLNQPLPETIEDLENWSLRAKKPKQEPEVEKASQRIPLQPHGPGLGSS
Km: 367 µM
Vmax: 414 pmol/min/mg protein
